Reference: publication PMC4576200 (Viruses, 2015)

Target: the molecule itself
Assay: AUC

B1: gp5β-BC, solvent-exposed part of the β-helical domain of bacteriophage T4 gene product 5 (residues 483–575) (domain or fragment, UniProt P16009 483-575, looked up)
chain: RGDETKTVEGNGTILVKGNVTIIVEGNADITVKGDATTLVEGNQTNTVNGNLSWKVAGTVDWDVGGDWTEKMASMSSISSGQYTIDGSRIDIG
- stoichiometry N: 3
